Measured values from PMC4742118, “The ON:OFF switch, σ1R-HINT1 protein, controls GPCR-NMDA receptor cross-regulation: Implications in neurological disorders” (Oncotarget, 2015).

B1: recombinant HINT1 protein (natural protein, mouse, UniProt P70349 1-126, looked up)
chain: MADEIAKAQVAQPGGDTIFGKIIRKEIPAKIIFEDDRCLAFHDISPQAPTHFLVIPKKHISQISVADDDDESLLGHLMIVGKKCAADLGLKRGYRMVVNEGADGGQSVYHIHLHVLGGRQMNWPPG
notes: HINT1, coding region of NM_008248, amplified from mouse brain RNA; also called PKCI/HINT1; source: E. coli BL21 (KRX), purified (GSTrap FF; when necessary cleaved with ProTEV and electroeluted)

Key:
Details in all cases: both partners purified
GST-σ1R = target: T1, GST-σ1R (murine, UniProt O55242 1-223); assay: pull-down; HINT1 protomer 200 nM with GST fusion protein 100 nM in 50 mM Tris-HCl pH 7.4, 2.5 mM CaCl2, 0.2% CHAPS, 30 min RT; captured on glutathione Sepharose 4B; Western blot
T1 construct: murine full-length (1-223) σ1R, GenBank AF004927, cloned downstream of GST and a TEV protease site; also called GST-tagged σ1 receptor; source: E. coli BL21 (KRX), purified (GSTrap FF); not shown: GST, N-terminal, kept
T1 sequence (O55242 whole entry, the tested form may be a part): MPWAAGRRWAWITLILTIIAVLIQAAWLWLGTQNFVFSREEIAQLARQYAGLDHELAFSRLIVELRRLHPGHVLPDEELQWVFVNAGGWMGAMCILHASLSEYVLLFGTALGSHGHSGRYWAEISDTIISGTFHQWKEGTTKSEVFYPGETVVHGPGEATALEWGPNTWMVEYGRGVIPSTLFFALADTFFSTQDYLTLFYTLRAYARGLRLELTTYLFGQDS

recombinant σ1R = target: T2, recombinant σ1R (murine, UniProt O55242 1-223); assay: pull-down; bait (GST-NR1 C0-C1-C2 or GST-MOR) covalently attached to NHS-activated Sepharose; σ1R 100 nM in 50 mM Tris-HCl pH 7.4, 0.2% CHAPS, 30 min RT; 0 mM CaCl2; Western blot
T2 construct: murine full-length (1-223) σ1R, GenBank AF004927; Used as prey; also called sigma 1 receptor; source: E. coli BL21 (KRX), purified (GSTrap FF; when necessary cleaved with ProTEV and electroeluted)
T2 sequence (O55242 whole entry): as the sequence (O55242 whole entry, the tested form may be a part) above

[1] = target: B1; assay: pull-down; displacement assay: HINT1 200 nM preincubated with agarose-NR1 or agarose-MOR in 50 mM Tris-HCl pH 7.5, 2.5 mM CaCl2, 0.2% CHAPS at RT; free HINT1 removed; σ1R added (100 nM, 300 nM or 1 uM on NR1; 300 nM on MOR); Western blot of bound HINT1 and σ1R

binding result (GST-σ1R) | binding result (recombinant σ1R) | binding result [1] | Binder
binds |  |  | B1
 | binds | binds | GST-MOR (domain or fragment, mus musculus, UniProt P42866 286-398, looked up, C-terminal region of mus musculus MOR1 (AB047546), residues 286-398; the methods speak of MOR Ct; also called GST-tagged MOR; MOR Ct; source: E. coli BL21 (KRX), purified (GSTrap FF); not shown: GST, N-terminal, kept) VAVFIVCWTPIHIYVIIKALITIPETTFQTVSWHFCIALGYTNSCLNPVLYAFLDENFKRCFREFCIPTSSTIEQQNSARIRQNTREHPSTANTVDRTNHQLENLEAETAPLP
